Experimental data: patent US20130064817A1
Substitutions are numbered along the chain they refer to. Names and notes keep the numbering of the source.

B1: humanized 20D7 antibody with hu20D7-a heavy chain variable domain (antibody, part only; not given: unnamed light chain, V domains shown, part only)
VH: QVQLVQSGAEVKKPGASVKVSCKASGYTFTNYAMNWVRQAPGQGLEWMGWINTYTGEPTYNEKFKGRVTMTTDTSTSTAYMELRSLRSDDTAVYYCARGGGYDEDYFDYWGQGTLVTVSS
B2: humanized 20D7 antibody with hu20D7-b heavy chain variable domain (T72L) (antibody, part only; not given: unnamed light chain, V domains shown, part only)
VH: B1 VH with N61S, E62D, K63D, T72L
B3: humanized 20D7 antibody with hu20D7-c heavy chain variable domain (T72L, M70F) (antibody, part only; not given: unnamed light chain, V domains shown, part only)
VH: B1 VH with N61S, E62D, K63D, M70F, T72L

Biological target: human IL-23R (human) (UniProt Q5VWK5)
Test: BIAcore, antibody immobilized on CM5 chip

Sequence of human IL-23R (human) (Q5VWK5 24-353 L310P limits assumed): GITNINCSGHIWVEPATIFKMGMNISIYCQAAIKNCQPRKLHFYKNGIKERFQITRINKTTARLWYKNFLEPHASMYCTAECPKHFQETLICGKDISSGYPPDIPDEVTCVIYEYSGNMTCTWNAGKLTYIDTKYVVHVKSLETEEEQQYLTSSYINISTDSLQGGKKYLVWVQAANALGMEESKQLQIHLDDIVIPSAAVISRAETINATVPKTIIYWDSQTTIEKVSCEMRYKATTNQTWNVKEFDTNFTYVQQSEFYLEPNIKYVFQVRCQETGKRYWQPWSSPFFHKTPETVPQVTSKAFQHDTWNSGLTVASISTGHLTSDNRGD

Binder	Kd [pM]	fold reduction of binding affinity against mouse 20D7 [fold]	fold improvement of binding affinity against the simple humanization (hu20D7-a) [fold]
B1	4300	50	
B2	360		
B3	230		20
